From the supplement of paper PMC11246515
± gives the standard deviation of the averaged measurements.

Assay: total protein half-life in vivo (active degradation + dilution); higher = more stable protein
[1] = E. coli NCM3722 delta-clpP delta-lon delta-hslV, growth: N-lim chemostat, doubling time 6 h
[2] = E. coli NCM3722 delta-clpP, growth: N-lim chemostat, doubling time 6 h
[3] = E. coli NCM3722 delta-hslV, growth: N-lim chemostat, doubling time 6 h
[4] = E. coli NCM3722 delta-lon, growth: N-lim chemostat, doubling time 6 h
[5] = E. coli NCM3722 delta-smpB, growth: N-lim chemostat, doubling time 6 h
[6] = wild type E. coli NCM3722, growth: C-lim chemostat, doubling time 3 h
[7] = wild type E. coli NCM3722, growth: C-lim chemostat, doubling time 6 h
[8] = wild type E. coli NCM3722, growth: C-lim chemostat, doubling time 12 h
[9] = wild type E. coli NCM3722, growth: N-lim chemostat, doubling time 6 h
[10] = wild type E. coli NCM3722, growth: N-lim chemostat, doubling time 12 h
[11] = wild type E. coli NCM3722, growth: P-lim chemostat, doubling time 6 h
[12] = wild type E. coli NCM3722, growth: P-lim chemostat, doubling time 12 h

Row | Sequence | total protein half-life in vivo [1] | total protein half-life in vivo [2] | total protein half-life in vivo [3] | total protein half-life in vivo [4] | total protein half-life in vivo [5] | total protein half-life in vivo [6] | total protein half-life in vivo [7] | total protein half-life in vivo [8] | total protein half-life in vivo [9] | total protein half-life in vivo [10] | total protein half-life in vivo [11] | total protein half-life in vivo [12]
1 | MALQNEKNSRYLLRDWKPENPAFWENKGKHIARRNLWISVSCLLLAFCVWMLFSAVTVNLNKIGFNFTTDQLFLLTALPSVSGALLRVPYSFMVPIFGGRRWTVFSTAILIIPCVWLGIAVQNPNTPFGIFIVIALLCGFAGANFASSMGNISFFFPKAKQGSALGINGGLGNLGVSVMQLVAPLVIFVPVFAFLGVNGVPQADGSVMSLANAAWIWVPLLAIATIAAWSGMNDIASSRASIADQLPVLQRLHLWLLSLLYLATFGSFIGFSAGFAMLAKTQFPDVNILRLAFFGPFIGAIARSVGGAISDKFGGVRVTLINFIFMAIFSALLFLTLPGTGSGNFIAFYAVFMGLFLTAGLGSGSTFQMIAVIFRQITIYRVKMKGGSDEQAHKEAVTETAAALGFISAIGAVGGFFIPQAFGMSLNMTGSPVGAMKVFLIFYIVCVLLTWLVYGRRKFSQK | 6.73 ± 1.1 h | 6.58 ± 0.92 h | 6.57 ± 1.3 h | 6.52 ± 0.52 h | 6.07 ± 0.48 h | 2.53 h | 6.34 ± 0.088 h | 13.7 ± 1.8 h | 4.92 ± 0.76 h | 10.8 ± 2.6 h | 7.05 h | 12.86 ± 0.088 h
2 | MALTAALKAQIAAWYKALQEQIPDFIPRAPQRQMIADVAKTLAGEEGRHLAIEAPTGVGKTLSYLIPGIAIAREEQKTLVVSTANVALQDQIYSKDLPLLKKIIPDLKFTAAFGRGRYVCPRNLTALASTEPTQQDLLAFLDDELTPNNQEEQKRCAKLKGDLDTYKWDGLRDHTDIAIDDDLWRRLSTDKASCLNRNCYYYRECPFFVARREIQEAEVVVANHALVMAAMESEAVLPDPKNLLLVLDEGHHLPDVARDALEMSAEITAPWYRLQLDLFTKLVATCMEQFRPKTIPPLAIPERLNAHCEELYELIASLNNILNLYMPAGQEAEHRFAMGELPDEVLEICQRLAKLTEMLRGLAELFLNDLSEKTGSHDIVRLHRLILQMNRALGMFEAQSKLWRLASLAQSSGAPVTKWATREEREGQLHLWFHCVGIRVSDQLERLLWRSIPHIIVTSATLRSLNSFSRLQEMSGLKEKAGDRFVALDSPFNHCEQGKIVIPRMRVEPSIDNEEQHIAEMAAFFRKQVESKKHLGMLVLFASGRAMQRFLDYVTDLRLMLLVQGDQPRYRLVELHRKRVANGERSVLVGLQSFAEGLDLKGDLLSQVHIHKIAFPPIDSPVVITEGEWLKSLNRYPFEVQSLPSASFNLIQQVGRLIRSHGCWGEVVIYDKRLLTKNYGKRLLDALPVFPIEQPEVPEGIVKKKEKTKSPRRRRR | 5.64 ± 0.42 h | 4.6 ± 0.54 h | 4.38 ± 0.61 h | 4.265 ± 0.026 h | 4.63 ± 0.33 h | 2.59 ± 0.09 h | 3.93 ± 0.69 h | 9.99 ± 0.84 h | 4.18 ± 0.2 h | 6.77 ± 1.1 h | 4.57 ± 0.25 h | 8.11 ± 0.31 h
3 | MALTKAEMSEYLFDKLGLSKRDAKELVELFFEEIRRALENGEQVKLSGFGNFDLRDKNQRPGRNPKTGEDIPITARRVVTFRPGQKLKSRVENASPKDE [P0A6X7] |  | 6.46 ± 1 h |  | 7.06 ± 0.79 h | 5.2 ± 0.41 h | 3.249 ± 0.0028 h |  |  | 5.83 ± 0.23 h |  | 6.33 ± 0.39 h | 11.7 ± 1.9 h
4 | MALYTIGEVALLCDINPVTLRAWQRRYGLLKPQRTDGGHRLFNDADIDRIREIKRWIDNGVQVSKVKMLLSNENVDVQNGWRDQQETLLTYLQSGNLHSLRTWIKERGQDYPAQTLTTHLFIPLRRRLQCQQPTLQALLAILDGVLINYIAICLASARKKQGKDALVVGWNIQDTTRLWLEGWIASQQGWRIDVLAHSLNQLRPELFEGRTLLVWCGENRTSAQQQQLTSWQEQGHDIFPLGI |  | 1.79 h | 1.66 h | 3.39 ± 0.71 h | 1.34 ± 0.26 h | 1.64 ± 0.79 h | 3.86 ± 0.76 h | 4.23 ± 0.31 h | 2.04 h | 2.49 h | 1.98 h | 3.04 ± 0.58 h
5 | MAMVEMQTTAALAESRRKMQARRRLKNRIALTLSMATMAFGLFWLIWILMSTITRGIDGMSLALFTEMTPPPNTEGGGLANALAGSGLLILWATVFGTPLGIMAGIYLAEYGRKSWLAEVIRFINDILLSAPSIVVGLFVYTIVVAQMEHFSGWAGVIALALLQVPIVIRTTENMLKLVPYSLREAAYALGTPKWKMISAITLKASVSGIMTGILLAIARIAGETAPLLFTALSNQFWSTDMMQPIANLPVTIFKFAMSPFAEWQQLAWAGVLIITLCVLLLNILARVVFAKNKHG | 6.78 ± 1.7 h | 5.74 ± 0.15 h | > 8 h | 4.84 h | 4.97 ± 0.05 h | 3.37 h | 5.11 ± 0.51 h | 12.1 ± 1.3 h | 5.15 ± 0.12 h | 10.6 ± 2 h | 4.95 ± 0.35 h | 9.13 ± 0.56 h
